Data on four molecules can be found in PMC2935386, “Dissecting the Relation between a Nuclear Receptor and GATA: Binding Affinity Studies of Thyroid Hormone Receptor and GATA2 on TSHβ Promoter”.

The target of data set [1] is T1, TRβ1 DBD-LBD (TR DL, TRβ1ΔAB);RXRα1 DBD-LBD (RXR DL, RXRα1ΔAB) (human;, UniProt P10828;P19793 102-461;126-462, |). The data set can be described thus: fluorescence anisotropy; T3; Hill n 3.7±1; text refers to previous studies [36],[37] but listed in this paper's Table 1 and Fig. 2; Fluorescence anisotropy: 10 nM DNA, 20 mM Hepes pH 8.0, 50 mM NaCl, 1 mM MgCl2, 3 mM DTT, 5% glycerol, 10°C; agarose gel 1.3% in 0.5x TBE. Particulars: protein: recombinant;recombinant; tags: His (pET28a);His (pET28a); copies: 1;1; label: 5' fluorescein (FITC) on forward strand; blunt. Background: Fluorescence polarisation rises when a labelled molecule tumbles more slowly, as on binding a larger partner.
T1 sequence (P10828 102-461, stated change not applied, chain 1 of 2): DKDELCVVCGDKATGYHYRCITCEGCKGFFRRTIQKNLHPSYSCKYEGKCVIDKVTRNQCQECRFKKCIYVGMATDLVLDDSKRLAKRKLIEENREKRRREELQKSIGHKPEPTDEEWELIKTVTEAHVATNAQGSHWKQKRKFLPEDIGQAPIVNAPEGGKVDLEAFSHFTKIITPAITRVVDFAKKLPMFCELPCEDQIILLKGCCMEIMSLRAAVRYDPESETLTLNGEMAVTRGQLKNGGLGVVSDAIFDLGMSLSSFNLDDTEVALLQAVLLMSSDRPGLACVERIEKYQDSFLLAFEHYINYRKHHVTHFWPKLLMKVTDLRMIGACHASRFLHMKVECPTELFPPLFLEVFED
T1 sequence (P19793 126-462, stated change not applied, chain 2 of 2): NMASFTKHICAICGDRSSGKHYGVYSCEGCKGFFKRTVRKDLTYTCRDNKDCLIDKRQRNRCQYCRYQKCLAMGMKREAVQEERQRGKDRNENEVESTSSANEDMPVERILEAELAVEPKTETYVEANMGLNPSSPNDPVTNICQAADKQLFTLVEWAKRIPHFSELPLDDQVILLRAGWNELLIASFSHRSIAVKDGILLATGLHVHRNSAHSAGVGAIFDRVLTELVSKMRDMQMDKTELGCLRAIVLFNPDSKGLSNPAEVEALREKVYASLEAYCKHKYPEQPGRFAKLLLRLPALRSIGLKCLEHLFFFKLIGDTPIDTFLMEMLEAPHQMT

Data set [2] deals with GATA2-Zf;TRβ1 DBD-LBD (TR DL, TRβ1ΔAB) (;human, UniProt P23769;P10828 291-412;102-461, |). The data set can be described thus: fluorescence anisotropy; T3; Hill n 1±0.2; Fluorescence anisotropy: 10 nM DNA, 20 mM Hepes pH 8.0, 50 mM NaCl, 1 mM MgCl2, 3 mM DTT, 5% glycerol, 10°C; agarose gel 1.3% in 0.5x TBE. Conditions: protein: recombinant;recombinant; tags: His, thrombin treated;His (pET28a); copies: 1;1; label: 5' fluorescein (FITC) on forward strand; blunt.
GATA2-Zf;TRβ1 DBD-LBD (TR DL, TRβ1ΔAB), sequence (P23769 291-412, stated change not applied, chain 1 of 2): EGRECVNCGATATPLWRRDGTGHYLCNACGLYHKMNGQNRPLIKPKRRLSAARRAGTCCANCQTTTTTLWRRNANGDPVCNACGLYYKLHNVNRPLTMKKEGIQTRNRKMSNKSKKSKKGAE
GATA2-Zf;TRβ1 DBD-LBD (TR DL, TRβ1ΔAB), sequence (P10828 102-461, stated change not applied, chain 2 of 2): as the sequence (P10828 102-461, stated change not applied, chain 1 of 2) above

Data set [3] deals with T1, TRβ1 DBD-LBD (TR DL, TRβ1ΔAB);RXRα1 …. The data set can be described thus: fluorescence anisotropy; T3; Hill n 1.8±0.1; Fluorescence anisotropy: 10 nM DNA, 20 mM Hepes pH 8.0, 50 mM NaCl, 1 mM MgCl2, 3 mM DTT, 5% glycerol, 10°C; agarose gel 1.3% in 0.5x TBE. Particulars: protein: recombinant;recombinant; tags: His (pET28a);His (pET28a); copies: 1;1; label: 5' fluorescein (FITC) on forward strand; blunt.

In general, Kd refers to the equilibrium constant for the complex coming apart.

B1: DR4 TRE (dsDNA)
DNA 1: AGTTCAGGTCACAGGAGGTCAGAG
DNA 2: CTCTGACCTCCTGTGACCTGAACT
As to B1, the Kd in data set [1] amounted to 39.4 ± 2.2 nM.

B2: GATA-RE (canonical) (dsDNA)
DNA 1: CACTTGATAACAGAAAGTGATAACTCT
DNA 2: AGAGTTATCACTTTCTGTTATCAAGTG
As to B2, the Kd in data set [2] turned out to be 140 ± 29.8 nM.

B3: TSH GATA-RE (dsDNA)
DNA 1: TCAATAGATGCTTTTCAGATAAGAA
DNA 2: TTCTTATCTGAAAAGCATCTATTGA
For the molecule B3, the Kd in data set [2] was determined as 38.6 ± 7.9 nM.

B4: TSH NRE (dsDNA)
DNA 1: TGGGTCACCACAGCATCTGCTCACCAATGCAAAGT
DNA 2: ACTTTGCATTGGTGAGCAGATGCTGTGGTGACCCA
For the molecule B4, the equilibrium dissociation constant (Kd) in data set [3] amounted to 720 ± 19 nM.
